Assay results: US20080146500A1, “Selective Vpac2 Receptor Peptide Agonists” (priority 2004, published 2008)
Ends that are not written are not given here.

Legend:
human VPAC2 = target: T1, human VPAC2 (Homo sapiens, UniProt P41587); assay: Alpha screen in vitro potency: human VPAC2-R mediated cAMP generation; type: cell-based; settings: single results or mean of two or more independent runs
T1 construct: expressed in transfected cells
T1 sequence (P41587 24-438): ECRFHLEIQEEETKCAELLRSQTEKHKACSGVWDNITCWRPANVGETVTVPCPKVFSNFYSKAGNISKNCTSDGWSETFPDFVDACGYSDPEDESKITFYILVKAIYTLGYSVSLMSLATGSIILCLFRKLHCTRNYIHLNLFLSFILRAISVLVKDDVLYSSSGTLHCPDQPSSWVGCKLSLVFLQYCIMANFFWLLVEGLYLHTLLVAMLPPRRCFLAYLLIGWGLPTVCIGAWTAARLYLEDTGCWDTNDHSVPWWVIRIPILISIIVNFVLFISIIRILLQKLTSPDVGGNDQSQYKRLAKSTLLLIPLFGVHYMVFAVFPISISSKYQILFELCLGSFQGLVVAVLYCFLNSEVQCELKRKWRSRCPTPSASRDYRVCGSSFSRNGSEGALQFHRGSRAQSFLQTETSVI

human VPAC1 = target: T2, human VPAC1 (Homo sapiens, UniProt P32241); assay: Filter binding assay, membranes from cells transiently transfected with human VPAC1, 125I-labeled VIP tracer; settings: read-out: Human receptor binding (IC50; nM) VPAC1
T2 construct: expressed in transfected cells
T2 sequence (P32241 31-457): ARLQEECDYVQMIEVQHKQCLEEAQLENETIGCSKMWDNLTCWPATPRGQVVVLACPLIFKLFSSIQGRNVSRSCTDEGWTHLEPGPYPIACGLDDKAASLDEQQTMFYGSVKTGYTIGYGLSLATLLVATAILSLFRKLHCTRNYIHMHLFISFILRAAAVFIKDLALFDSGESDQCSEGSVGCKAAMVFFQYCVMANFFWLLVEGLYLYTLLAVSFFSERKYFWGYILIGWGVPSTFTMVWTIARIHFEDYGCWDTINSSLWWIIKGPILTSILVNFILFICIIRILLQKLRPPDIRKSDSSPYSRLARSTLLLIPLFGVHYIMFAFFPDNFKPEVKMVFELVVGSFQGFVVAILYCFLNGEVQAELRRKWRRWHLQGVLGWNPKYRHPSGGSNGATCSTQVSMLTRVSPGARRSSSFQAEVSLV
Description: For this assay, the solutions and equipment include:
Presoak solution: 0.5% Polyethyleneamine in Aqua dest.
Buffer for flushing filter plates: 25 mM HEPES pH 7.4
Blocking buffer: 25 mM HEPES pH 7.4; 0.2% protease free BSA
Assay buffer: 25 mM HEPES pH 7.4; 0.5% protease free BSA
Dilution and assay plate: PS-Microplate, U form
Filtration Plate Multiscreen FB Opaque Plate; […] Type B Glasfiber filter
In order to prepare the filter plates, the presoak solution is aspirated by vacuum filtration. The plates are flushed twice with 200 μL flush buffer. 200 μL blocking buffer is added to the filter plate. The filter plate is then incubated with 200 μL presoak solution for 1 hour at room temperature.
The assay plate is filled with […] (2.5 μg) suspended in assay buffer, 25 μL compound (agonist) in assay buffer, and 25 μL tracer (about 40000 cpm) in assay buffer. The filled plate is incubated for 1 hour with shaking.
The transfer from assay plate to filter plate is conducted. The blocking buffer is aspirated by vacuum filtration and washed two times with flush buffer. 90 μL is transferred from the assay plate to the filter plate. The 90 μL transferred from assay plate is aspirated and washed three times with 200 μL flush buffer. The plastic support is removed. It is dried for 1 hour at 60° C. 30 μL Microscint is added. The count is performed.
Values reported are single results or the mean of two or more independent runs.

rat VPAC2 receptor = target: T3, rat VPAC2 receptor (Rattus norvegicus, UniProt P35000); assay: Rat VPAC2 in vitro potency (cAMP generation, DiscoveRx) in transiently transfected CHO-PO cells; type: cell-based; settings: CHO-PO cells transiently transfected with rat VPAC2; read-out: rVPAC2 in vitro potency (cAMP generation) EC50
T3 construct: expressed in transfected cells; host or cells: CHO-PO cells, transient
T3 sequence (P35000 23-437): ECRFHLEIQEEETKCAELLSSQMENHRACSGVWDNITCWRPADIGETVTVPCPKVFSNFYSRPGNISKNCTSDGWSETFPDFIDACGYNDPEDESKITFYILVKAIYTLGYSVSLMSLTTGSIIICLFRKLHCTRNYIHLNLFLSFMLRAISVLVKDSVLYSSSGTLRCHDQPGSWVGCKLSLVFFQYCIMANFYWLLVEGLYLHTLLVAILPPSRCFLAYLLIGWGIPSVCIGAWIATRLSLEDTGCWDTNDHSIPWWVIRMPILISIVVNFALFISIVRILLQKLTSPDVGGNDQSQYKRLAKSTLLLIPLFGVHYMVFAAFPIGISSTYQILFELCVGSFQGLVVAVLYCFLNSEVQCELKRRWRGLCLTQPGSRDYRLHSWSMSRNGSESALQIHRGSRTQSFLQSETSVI
Description: Rat receptor selectivity is estimated by comparing functional potency (cAMP generation) in CHO-PO cells transiently expressing rat VPAC1 or rat VPAC2 receptors. CHO-PO cells transiently expressing rat VPAC1 or VPAC2, are seeded with 10,000 cells/well three days before the assay. The cells are kept in 200 μL culture medium. […] The stimuli are present for 30 minutes. The assay buffer is then gently removed.

[1] = Pharmacokinetic profiles of PEGylated peptides, plasma peptide by RIA; type: in vivo, Fisher 344 rats; settings: Fisher 344 rats, 100 μg compound/kg, plasma RIA, mean N = 3
Description: Pharmacokinetic profiles of PEGylated peptides. Healthy Fisher 344 rats (3 animals per group) are injected with 100 μg compound/kg (compound amount based on peptide content and dissolved in PBS buffer). […] PK parameters are then calculated using a model-independent method (WinNonlin Pro, Pharsight Corp., Mountain View, Calif., USA).

**Q.** What does the source list for “C6-HDAVFTEQY(OMe)TOrnLRAibQVAAAibOrnYLQSIOrnOrnGGPSSGAPPPC(PEG60K)-NH2 [Agonist P404]”?
**A.** EC50 (human VPAC2): 17 nM; IC50 (human VPAC1): > 3000 nM; EC50 (rat VPAC2 receptor): 24.4 nM; AUC0-last [1]: 6070 ng·h/mL; Cl/F [1]: 0.283 mL/min/kg; Cmax [1]: 133 ng/mL; Tmax [1]: 20 h; T½ [1]: 23 h

**Q.** With “C6-HSDAVFTDNYTOrnLRAibQVAAAibKYLQC(PEG40K)IOrnNOrnGGPSSGAPPPS (HSDAVFTDNYTXLRXQVAAXKYLQCIXNXGGPSSGAPPPS; non-natural residues) [Agonist P373]” as the substance, how does the EC50 (human VPAC2) read?
**A.** 33.9 nM

**Q.** What about the IC50 (human VPAC1) of the same substance?
**A.** > 25000 nM

**Q.** What about the EC50 (rat VPAC2 receptor) of the same substance?
**A.** 72.2 nM

**Q.** And the AUC0-last [1]?
**A.** 10803 ng·h/mL

**Q.** What about the Cl/F [1] of the same substance?
**A.** 0.167 mL/min/kg

**Q.** What about the Cmax [1] of the same substance?
**A.** 240 ng/mL

**Q.** What about the Tmax [1] of the same substance?
**A.** 13 h

**Q.** And the T½ [1]?
**A.** 31 h

**Q.** Which results are given for “C6-HSDAVFTEQY(OMe)TOrnLRAibQVAK(CO(CH2)2SPEG40K)AibOrnYLQSIOrnOrnGGPSSGAPPPS-NH2 (HSDAVFTEQYTXLRXQVAXXXYLQSIXXGGPSSGAPPPS; non-natural residues) [Agonist P432]”?
**A.** EC50 (human VPAC2): 20.1 nM; IC50 (human VPAC1): > 3000 nM; EC50 (rat VPAC2 receptor): 16.7 nM; AUC0-last [1]: 21471 ng·h/mL; Cl/F [1]: 0.083 mL/min/kg; Cmax [1]: 392 ng/mL; Tmax [1]: 16 h; T½ [1]: 35 h

**Q.** For “P137: PEGylated material obtained from P120 and methoxy-PEG2-MAL-40K (HSDAVFTDNYTRLRKQVAAKKYLQSIKNKRYGGPSSGAPPPC; also: PEGylated with methoxy-PEG2-MAL-40K, site not given here) [Agonist P137]”, which EC50 (human VPAC2) is on record?
**A.** 8.31 nM

**Q.** What about the IC50 (human VPAC1) of the same substance?
**A.** 853 nM

**Q.** What about the EC50 (rat VPAC2 receptor) of the same substance?
**A.** 8 nM
